The record followed here is US20050266009A1 (SAVIENT PHARMACEUTICALS, published 2005).

Where a chain is given by its changes, count along the chain named.

One test has as its target T1, GPIb on human platelets (human, UniProt P07359 17-652).
T1 construct: whole, on cells; also called GPIbα; platelet GPIb
The experiment in a line: FACS on human platelets.

The target in test [1] is T2, GPIb on guinea pig platelets (guinea pig).
T2 construct: whole, on cells; also called guinea pig derived platelets
The experiment in a line: FACS on guinea pig platelets.

T1 sequence (P07359 17-652): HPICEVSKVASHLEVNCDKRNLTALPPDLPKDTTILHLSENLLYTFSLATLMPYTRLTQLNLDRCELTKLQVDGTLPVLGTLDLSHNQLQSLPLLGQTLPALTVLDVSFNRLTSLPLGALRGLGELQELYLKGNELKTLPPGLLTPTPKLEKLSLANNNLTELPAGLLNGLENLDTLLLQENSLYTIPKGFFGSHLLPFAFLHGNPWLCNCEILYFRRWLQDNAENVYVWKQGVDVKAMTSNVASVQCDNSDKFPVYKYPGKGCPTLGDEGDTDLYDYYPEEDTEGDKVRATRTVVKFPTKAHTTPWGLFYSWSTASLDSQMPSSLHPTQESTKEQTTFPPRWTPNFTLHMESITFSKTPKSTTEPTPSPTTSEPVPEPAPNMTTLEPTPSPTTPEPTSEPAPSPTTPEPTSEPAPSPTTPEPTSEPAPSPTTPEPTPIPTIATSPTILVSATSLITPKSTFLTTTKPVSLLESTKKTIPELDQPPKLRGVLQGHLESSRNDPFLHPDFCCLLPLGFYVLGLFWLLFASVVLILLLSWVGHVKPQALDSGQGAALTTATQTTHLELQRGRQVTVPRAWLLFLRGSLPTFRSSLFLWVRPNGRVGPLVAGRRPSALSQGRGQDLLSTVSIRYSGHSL

B1: S1 scFv (scFv)
chain: EVQLVESGGGVVRPGGSLRLSCAASGFTFDLNPKVKHMWVRQAPGKGLEWVSGINWNGGSTGYADSVKGRFTISRDNAKNSLYLQMNSLRAEDTAVYYCARLRPPFLWGQGTLVTVSRGGGGSGGGGSGGGGSSELTQDPAVSVALGQTVRITCQGDSLRSYYASWYQQKPGQAPVLVIYGKNNRPSGIPDRFSGSSSGNTASLTITGAQAEDEADYYCNSRDSSGNHVVFGGGTKLTVLGAAAEQKLISEEDLNGAA
On to B1, for which, in the test with GPIb on human platelets, the “fold binding capacity relative to Y1” value was roughly 25 fold.

B2: D1 scFv (scFv)
scFv: B1 chain with P104S, L107G
In the case of B2, the “fold binding capacity relative to Y1” value in test [1] was roughly 25 fold.
